From article PMC3787745, “Yeast Mnn9 is both a priming glycosyltransferase and an allosteric activator of mannan biosynthesis” (Open Biology, 2013)

Target: T1, ScVan1 (Saccharomyces cerevisiae Van1p glycosyltransferase domain, residues 87-535) (S. cerevisiae, UniProt P23642 87-535)
T1 construct: Van1p, S. cerevisiae S288c, lacking the first 86 amino acid residues (cytoplasmic domain, transmembrane domain and predicted disordered region); glycosyltransferase domain 87-535; Cloned into pNIFTY/MBP (MBP, hexahistidine, TEV site at the N-terminus); the tag was cleaved off with TEV protease; also called ScVan1p; V1; source: E. coli BL21(DE3) pLysS, purified (Ni-IMAC, TEV cleavage, anion …)
T1 sequence (looked up): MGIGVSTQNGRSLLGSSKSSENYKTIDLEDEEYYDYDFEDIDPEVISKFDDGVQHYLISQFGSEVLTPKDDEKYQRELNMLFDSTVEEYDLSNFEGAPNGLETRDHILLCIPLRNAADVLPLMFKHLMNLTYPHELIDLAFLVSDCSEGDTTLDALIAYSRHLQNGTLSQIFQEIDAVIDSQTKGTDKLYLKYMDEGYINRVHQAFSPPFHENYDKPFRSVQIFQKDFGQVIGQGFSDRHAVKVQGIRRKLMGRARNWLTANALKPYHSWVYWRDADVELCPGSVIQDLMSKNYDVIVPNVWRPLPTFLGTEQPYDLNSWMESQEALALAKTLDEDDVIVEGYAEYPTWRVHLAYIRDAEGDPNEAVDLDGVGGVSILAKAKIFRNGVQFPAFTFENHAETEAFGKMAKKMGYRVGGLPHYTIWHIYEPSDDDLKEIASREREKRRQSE
Assay: BLI; Octet RED384; biotinylated ScMnn9 bound at 25 µg/ml to streptavidin sensors; ScVan1 at 0 to 15 µM in buffer C (100 mM HEPES pH 7.5, 5 mM MnCl2, 1 mg/ml BSA, 0.015% BRIJ 35); association 10 min, dissociation 20 min; triplicate, full kinetic fit
Conditions: both partners purified

B1: ScMnn9 (Saccharomyces cerevisiae Mnn9p glycosyltransferase core, residues 93-395) (domain or fragment, S. cerevisiae, UniProt P39107 93-395, looked up)
chain: EGHIAHYDLNKLHSTSEAAVNKEHILILTPMQTFHQQYWDNLLQLNYPRELIELGFITPRTATGDLALKKLENAIKKVQTDKKTQRFSKITILRQNSQSFDKLMEKERHALDVQKERRAAMALARNELLFSTIGPHTSWVLWLDADIIETPPSLIQDMTKHNKAILAANIYQRFYDEEKKQPSIRPYDFNNWQESDTGLEIASQMGDDEIIVEGYAEIATYRPLMAHFYDANGVPGEEMALDGVGGGCTLVKAEVHRDGAMFPNFPFYHLIETEGFAKMAKRLNYDVFGLPNYLVYHIEEENH
modifications: biotinylated with EZ-link NHS-PEG4-Biotin
notes: Mnn9p, S. cerevisiae S288c, lacking the first 92 amino acid residues (cytoplasmic domain, transmembrane domain and predicted disordered region); glycosyltransferase core 93-395; Cloned into pNIFTY/MBP (MBP, hexahistidine, TEV site at the N-terminus); PDB 3ZF8 holds the D236N mutant of the same limits; also called ScMnn9p; M9; source: E. coli BL21(DE3) pLysS, purified (Ni-IMAC, TEV cleavage, anion …)
Kd: 480 nM
koff: 0.00032 s⁻¹
kon: 620 M⁻¹ s⁻¹
